Here are results for one substance from doi:10.1101/2024.09.02.610899.

For this experiment, the target named is POTRA domains of Toc75 (Toc75-POTRA) (Chlamydomonas reinhardtii). The experiment in a line: SPR. In general terms: In SPR one partner is held on a chip, and binding of the other changes the refractive index at the surface.

As a reminder, the Kd is the constant that tells how readily two partners part at equilibrium. A higher Kd goes with weaker binding.

“Tic22 (recombinant, His-tagged) (natural protein)” gave an equilibrium dissociation constant (Kd) of 5.22 µM.
